{"source": "paper PMC11228984", "experiment": "expression and purification from insect cells", "settings": "glycan lost; control: unmutated TREK2 construct", "data": [{"protein": "TREK2: N144Q (protein) parent chain: MFFLYTDFFLSLVAVPAAAPVCQPKSATNGQPPAPAPTPTPRLSISSRATVVARMEGTSQGGLQTVMKWKTVVAIFVVVVVYLVTGGLVFRALEQPFESSQKNTIALEKAEFLRDHVCVSPQELETLIQHALDADNAGVSPIGNSSNNSSHWDLGSAFFFAGTVITTIGYGNIAPSTEGGKIFCILYAIFGIPLFGFLLAGIGDQLGTIFGKSIARVEKVFRKKQVSQTKIRVISTILFILAGCIVFVTIPAVIFKYIEGWTALESIYFVVVTLTTVGFGDFVAGGNAGINYREWYKPLVWFWILVGLAYFAAVLSMIGDWLRVLSKKTKEEVGEIKAHAAEWKANVTAEFRETRRRLSVEIHDKLQRAATIRSMERRRLGLDQRAHSLDMLSPEKRSVFAALDTGRFKASSQESINNRPNNLRLKGPEQLNKHGQGASEDNIINKFGSTSRLTKRKNKDLKKTLPEDVQKIYKTFRNYSLDEEKKEEETEKMCNSDNSSTAMLTDCIQQHAELENGMIPTDTKDREPENNSLLEDRN", "values": [{"measurement": "expression_or_secretion", "value": "no change"}]}]}
